# From the DeepSol protein solubility set
# Assay: soluble on expression in E. coli; label from the status in PepcDB or PDB records
row,Sequence,soluble on expression in E. coli
1,MVSEPKVPKAPRPPKQPNVQDFQFFPPRLFELLEKEILYYRKTIGYKVPRNPDLPNSAQVQKEEQLKIDEAEPLNDEELEEKEKLLTQGFTNWNKRDFNQFIKANEKWGRDDIENIAREVEGKTPEEVIEYSAVFWERCNELQDIEKTMAQIERGEARIQRRISILEHHHHHH,soluble
2,MTDTARKIVAQPLSAAAFAPFGQVIDTAQVASRPMNDGRARRFHDLAEIEVIGNGARVVVGLVEAEPYAVPLWLNLVERHPLGAQAFVPLNAAPFLVVVCPDESGKPGAPQAFITAPHQGVCYARNTWHSVLTPFGAAQDFVVIDRGGPGVNLEEHLFDEPWIVHLSTSGLEHHHHHH,soluble
3,MKFPGQRKSKHYFPVHTRDPLVNQINQTPKLERTHLIGVGQTIVDIEAKVDDDFLNRHQLSKGHSLVLEESKAEALYKELFERNLISHEYPGDTIGNTLHNYSVLADSKSILLGVMSEDIKIGSYAYRYLCNTTSRMDLDYLQPVQGPIGRCYTLISEDGERTFAINEGDMNQLCPTHVPEHIFEKASALVISSYLVRGKEGDPMMDAVRKAIDCAKSHNVPVVLTLGTKYVIEGKAEWWQTFLKENVTVVAMNEEEAEALTGEKDPLLAADKALEWVDLVLCTAGPIGLYMAGFTEESIKRETSKPLLPGNIPEFNRFEYSRPMVKALCKKPIKVSSHIAPYMGGPVEIKNTNGAGDAALSALLHDMAANYYHKENVPNSSKHDAEYLTYSSFSQICKYSNRASYEVLTQHSPRLSKSMPEREDCLEEAYWER,not soluble
4,MNSSLKNLLNNKILVLDGAMGTCIQSFNLDEGDFKGSLSCTCHSNQKGNNDVLNLTKPEIIKEIHKRYLEAGADIIETNTFNATEISQKDYNMQDKIYDINFKGAKLAKEACTYYTKLNPNKPRFAAGSIGPTNRTASLSPDVENPGFRNVTFDELCNAYKHQIEALIDGGVDLLLIETIFDTLNARAAIFAAETVFENKKIKLPIIISGTIADKSGRILSGQTLDAFAESLKNENIIAIGLNCSFGAEELIPFIKRLSETQNRYISFHPNAGLPNSLGEYEELPEETASIVKKLALEGHLNIVGGCCGTTPEHIRAISSVVKGISPRKVPNLEPKTIYSGLENIKIDKNSNFINIG,not soluble
5,MSQGYAIELYFDPALENQVLKAWNVFARRQISTYLINNESRPHITLFSTTSSIDSTKLEPIIKSFSSKQEPISLSFSSIGSFSSDDNALFLSPTPSLSLIQLQLQLCEVIKKEGFEIGEEYRVDSWVPFCSVAVDVPKSRISEGFLVLRDLKLLVYGYAMDIGLVEFSPVREVFSFGLGNNLES,soluble
6,MGSDKIHHHHHHARTILREELAQNSINKYSVKQYCQASGVGRASFYSTYNGMPDLFCNTLQFEIRKHFQNYSDCNSRKLVYALLKEIGDHRIYYTNIYRLTNKNTSKIHICHQINHAFFTEMQKHLQNSNCSNKQIQSMTNIIFSRVVSWVAHNCKEKVLDVYVDLEYVLPSN,not soluble
7,MKRYRTLLFDVDDTILDFQAAEALALRLLFEDQNIPLTNDMKAQYKTINQGLWRAFEEGKMTRDEVVNTRFSALLKEYGYEADGALLEQKYRRFLEEGHQLIDGAFDLISNLQQQFDLYIVTNGVSHTQYKRLRDSGLFPFFKDIFVSEDTGFQKPMKEYFNYVFERIPQFSAEHTLIIGDSLTADIKGGQLAGLDTCWMNPDMKPNVPEIIPTYEIRKLEELYHILN,not soluble
8,MKSIIIAAPHSGSGKTTITVGIMECFRRRGLTVAPFKVGPDFIDPGYHRLVTGLPSANLDGWICPPEFVRASFAHHALNADMAIIEGVMGLFDGFGGIADEGSTAQVARLTGAPVILVVDARGLARSAAAILKGFAEFDPSVRVAGVIFNNVGSDSHERILREAVGQSLPELKVFGCIPRDDGLHIPARHLGLLTAEEHPLSGEFLDHLVEVIRDRVDLGLLWGAANPLGAPVPRAEPIPCQTLGGSVRLAVARDEAFCFVYEDNLCLLRRAGAEIVTFSPLRDERLPEDVAGVYLPGGYPEVFADALAANTGMKESLARAVNEGMPVYAECGGFIYLTRGVTDSAGEPESLHEFVGIFPVTTRMLPRRKALGYREVELAADTIIGPAGTLARGHEFHYSEMEEMPADVERAYRVRRGPVDLGMEGYRYRNCLASYVHLHFGSNPELAAAFVARCRSFVTRSRVLEHHHHHH,not soluble
9,GMSFENYFPLWNDLNTAQKKLISDNLITQHVKKGTIIHNGNMDCTGLLLVKSGQLRTYILSDEGREITLYRLFDMDMCLLSASCIMRSIQFEVTIEAEKDTDLWIIPAEIYKGIMKDSAPVANYTNELMATRFSDVMWLIEQIMWKSLDKRVASFLLEETSIEGTNELKITHETIANHLGSHREVITRMLRYFQVEGLVKLSRGKITILDSKRLETLQRS,soluble
10,MGSDKIHHHHHHMLADLPIALNPHEPTSIPTQLTEQIRRLVARGILTPGDPLPSSRSLSTQLGVSRGSVVTAYDQLAGEGYLSTARGSGTTINPDLHLLKPVEIEKKETSRSVPPPLLNLSPGVPDTATLADSAWRAAWREACAKPPTHSPEQGLLRLRIEIADHLRQMRGLMVEPEQIIVTAGAREGLSLLLRTMDAPARIGVESPGYPSLRRIPQVLGHETIDVPTDESGLVPRALPHDLNALLVTPSHQYPYGGSLPADRRTALVAWAEANDALLIEDDFDSELRYVGMPLPPLRALAPDRTILLGTFSSVITPQVACGYLIAPTPQARVLATLRGILGQPVGAITQHALASYLASGALRRRTQRLRRLYRHRRSIVQDTLGDLPNTQLRPINGGLHAVLLCDKPQDLVVTTLASRGLNVTALSHYWGGTGADNGIVFGFGSHDEDTLRWVLAEISDAVSLG,not soluble
11,KGSAFAPGITAGMGVKYKLKPRINVGIEYSFTGLLTDALDALTDKSVWLEDPYKINDSWVKNKDATGALVLRITYDFGLRKTFCNKQ,not soluble
12,MDTLRYLTGYPPAVLEQVRALIAQDKLGAVLAQRYPERHTVRTDRQLYDYVKEMKERYMRSSPTLHKAIYDNHLQVVKHALGTHTAISRVHGSRLKASREIRIAAIFRDAPAPFLQMIVAHELAHLKEPEHDKAFYQLCHHMAPDYHQLEFDLRLYLTQLALSPRDLEHHHHHH,soluble
13,MAHHHHHHMKLLKVSPEKNIEFPLVHFQAVTQVVKLENISDRKVAFKIKTTAPNNYLVRPSFGLINVKETIDIQIILQPLSDKDNISNDKFQVQCLNVDDDTTVDKQFWVTVNKNEIQDHKLVVVLNDESFSKGPHSYLPPNNNPLTEINNKGHNLNYGENNLNADDANMAEGTNQRRPHRVCAAV,soluble
14,MFVRTAVVLLLVASTAYTFVAPPSQATLACITCVATVKGVEAKMLHEGGNVAKHDVDAICLKEVPTHSAEHLCEEYGEHEVDVMVTLIKQDVPPKMICQELQKC,not soluble
15,MSLREAVLANLKKITDPVSGQDIVSAGIVRALNVEGDTVRFVIEIDPKLAERMEPVRAAAEKAAQMVEGVAKVSAMMTAHSDKAPPELKPRAKAAPQGPQPVAGVDRIVAVASGKGGVGKSTVSANLACALAAEGRRVGLLDADVYGPSQPRMLGVSGRPASPDGKTILPLRNHGVTMMSMGLMTNEGQAVVWRGPMLMGALQQMMNQVQWGGLDVLIVDLPPGTGDVQLTLSQKFAVDGAIIVSTPQDVALIDARKGIDMFRQLKTPILGMIENMSTHICSNCGHEEHVFGHGGVAAEAEKLGVPLLGEIPLHLDIRVAADGGAPIVVSKPDSPQAEAFRRIARDLIAKGQALEHHHHHH,soluble
16,GSQGHDTVQPNFQQDKFLGRWYSAGLASNSSWFREKKAVLYMAKTVVAPSTEGGLNLTSTFLRKNQCETKIMVLQPAGAPGHYTYSSPHSGSIHSVSVVEANYDEYALLFSRGTKGPGQDFRMATLYSRTQTLKDELKEKFTTFSKAQGLTEEDIVFLPQPDKCIQE,soluble
17,MRGSHHHHHHTDPALRAIVISRHVAIPDGELEITAIRAQGAGGQHVNKTSTAIHLRFDIRASSLPEYYKERLLAASHHLISSDGVIVIKAQEYRSQELNREAALARLVAMIKELTTEKKARRPTRPTRASKERRLASKAQKSSVKAMRGKVRSGREGLCGR,soluble
18,MFTGIIEETGTIESMKKAGHAMALTIKCSKILEDVHLGDSIAVNGICLTVTDFTKNQFTVDVMPETVKATSLNDLTKGSKVNLERAMAANGRFGGHFVSGHVDGTAEITRIEEKSNAVYYDLKMDPSLTKTLVLKGSITVDGVSLTIFGLTEDTVTISLIPHTISETIFSEKTIGSKVNIECDMIGKYMYRFLHKANENKTQQTITKAFLSENGF,soluble
19,FDASNFKDFSSIASASSSWQNQSGSTMIIQVDSFGNVSGQYVNRAQGTGCQNSPYPLTGRVNGTFIAFSVGWNNSTENCNSATGWTGYAQVNGNNTEIVTSWNLAYEGGSGPAIEQGQDTFQYVPTTENKSLLKD,soluble
20,MAHHHHHHMVSGFVEFEILRGKNYPQTEDDPNPCTTQVTVSVVDALSGAVLSRAQLSSIQQNSNAPFYNDTLNFRVEDAPEDVCLSISVSEHSRQKIPFVLFYGKQIIGLSKLKAKQRFVIPLFSGEEGTQQVEIGADTLDLESSGKVPFLSARIQFTKDKVFDKTDPYSDVDVSGKGLSFDGKNQLVPEGTQYVWLRLKSDKKWTNSFQYELSVAWRSRAPLEAENQGNTKSRKGTTGGMAAISAEPDSARTLGDIIIKKWCCRRTHQVLTRVCITAEKYGNKVTDLTFTPKEEVEFRTNKKERCVFLEQICKKRLEDACSNCLRQWLNRLWILFVTGVDSDPAEARALSYEVRKAVHDAQFTEADAIILQACLLFSFIPSLKYEVCQALSESDYQAAQSEKKIEVGALESPQCRVTPSQEMFTRVFISFVGSLLDTLTEAEIAKAAAEFKPAIWDAQQRIAKGAKSTIGSCKKKYEGSIFKGTGIHIDHLDKLGRRKQVPKFV,soluble
21,MFNKLSTPIHIIGGGLAGCEASWQIAQSGIPVILHEMRPQKKSEAHKTGQLAELVCSNSFRSDDSSTNAVGLLHTEMRLAKSLIMKAADANKVPAGSALAVDRDGFSKTVTAALENHPLITIKREEIQEIPENWPHIIIATGPLTSPKLAKAIQTITGTEALSFFDAIAPIIYTDSINMDICWYQSRYDKIGPEGTGKDYLNCPLNKEQYEAFVQALKNAEKTEFRDFEKTPYFDGCLPIEVMAERGLETLRHGPMKPMGLTNAHNPTVKAYAVVQLRQDNKLGTLYNMVGFQTKLKYGEQVRIFRMIPGLENAEFARLGGLHRNTYLNSPIILDQTLRLKQRPGLRFAGQITGCEGYVESSAIGLLAGRFAAAEYHYNCPCLPPLTTALGLEHHHHHH,soluble
22,MAHHHHHHMARIISASELEKAADALARGNLVAIPTETVYGLGGNALNKEAVEKIFIVKGRPLTDPLICHVSDVEKAMDLWDVHADPEAVELARVLGTAIWPGPLTIVLRANPLLPNSVTGGSGFVGARIPRHEITLRLLQLVNFPVAAPSANTFGHVSPTTADHVLKDLGPKDSSLLIVDGGPCDIGIESTVVKVNNVESVEILRRGGVTLTEVLRALGDKFHPLITIRDTRLRHLSPEMAMDGPGQLLTHYSPNVPSRLLTPSSFTTNLPMDPEGALVEFSSNSSVAAPTEVLLRHTVIIDFGGKLQCLKPGCLAYRDLSVNAQVREACFAVFDALRWTETIPGAEVVLFPLVSGWPHASVDTDLLAAVEDRLFRAASGKVARIRMQSRSV,not soluble
23,LARSMACNSETLSELSFALTVGQKANDCDWFVGNSLIVRLLDMTGELNQKNVYTNRGASGIDGLVATAVGVQLANDKPLLALVGDTSLLYDLNSLALLKQATQPMVVVVMNNDGGGIFDLLPVNEKKKDDFYRMPHQLEFSHAAAMFGLSYHRPETLSCAMSMINDGLEKGIHLIEINTPAGQSGEELTRLFQTIQHAALF,not soluble
